± gives the uncertainty stated by the source.

The series can be described thus: amyloid nucleation score (Sup35N fusion, yeast selection) (log enrichment); library NNK3; higher = more nucleation; inactive = no reads after selection. The procedure, abridged:
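Peptides of 20 random codons, each fused to Sup35N, were expressed in psi-negative yeast. Cells were induced with 100 μM copper sulfate for 24 hours and grown 7 days at 30°C on medium lacking adenine and uracil, and plasmid inserts before and after selection were Illumina-sequenced. Nucleation scores are DiMSum log enrichments of output over input reads, centred on the mode score of non-aggregating sequences, and sequences under 100 input reads were excluded.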
HTWSCCYFLS had an amyloid nucleation score of 2.54 ± 0.063. In the case of HVAIPTGLSKSNSQLYS it was “inactive”; in that of HVFCHVPNPCLVGSMLTLGD, “inactive”; in that of HVFSITLAVGTYLLTRLYSQ, 1.07 ± 0.1. Regarding HVPGRIWDVFTRLLNEVLTN, the amyloid nucleation score entry was “inactive”. In the case of HVSQTWLGRGADSGHWPRQG it was 0.325 ± 0.46; in that of HVSVFMCLCTVDTR, 1.33 ± 0.078; in that of HWTGVAELLAGYCV, “inactive”.

Consider HYGEFHKTNCARYRYFI, for which the amyloid nucleation score result was “inactive”. In the case of HYLYRNCNVAVTVRSLTV it was “inactive”; in that of HYSAFTRQSVSSKDTDT, -0.582 ± 0.76; in that of HYTTASFDVDNPLRLLLLLQ, “inactive”.

For the substance HYTVDANNIVFYILH, the amyloid nucleation score came to 3.11 ± 0.076. Consider HYYNSHSWATTTT, for which the amyloid nucleation score result was “inactive”. In the case of IAFLAMHLFVASWFPR it was “inactive”; in that of IAHISLQNIVDVMGPNRSMY, 1.44 ± 0.14; in that of IALIICEGLPRMRGSSGPVG, “inactive”. As for IALSLLKTAKIMY, the amyloid nucleation score result is “inactive”. In the case of IALSVDYLRFIFKNHSA it was -0.464 ± 0.66; in that of IALTWDSVIYSTYLGVNFLT, 0.627 ± 0.23.

With IANRKSGMKSTRKKESWH, the amyloid nucleation score result is “inactive”. Under IAVCHLFLQYLCSRSTFMTL stands “inactive”; under ICAMAYADRTFSTSKGSK, “inactive”.

For ICGNPLVLLMNNSVRLG, the amyloid nucleation score turned out to be 0.092 ± 0.64.

On to ICYTMST, for which the amyloid nucleation score result was “inactive”. In the case of IDCILVTGLHVDLLEWQKRQ it was 2.03 ± 0.086. In the case of IDCLFRLAGYWSALWTFVLF it was “inactive”; in that of IDDQLCQ, “inactive”; in that of IDFILWQFVMF, “inactive”. In the case of IDGWRGELVMTYN it was 0.025 ± 0.48.

Take IDLFRSFSLAVLVVYMSEDW: the amyloid nucleation score entry was “inactive”. Under IDLNMQMELHGWHRVCWGCY stands 0.657 ± 0.22; under IDLVLFSTCVNALVVESFGG, “inactive”; under IDTISMG, “inactive”. Under IDTWFISFRCMFSGNYMYFL stands “inactive”; under IDVLV, “inactive”.

Regarding IDYAYGNVTNNPQKP, the amyloid nucleation score entry was “inactive”. Under IEAMRNRWSFKY stands “inactive”. Under IEFLFMYTWWAVLNSGSK stands 0.999 ± 0.2; under IEGSYIDMFLYSYLMSGSLI, “inactive”; under IEGVGCIFRDLGDFLRGPWG, “inactive”. Consider IEPIECTMA, for which the amyloid nucleation score entry was “inactive”. Regarding IEQPY, the amyloid nucleation score entry was “inactive”. As to IESIH, the amyloid nucleation score result was “inactive”. In the case of IESVRKHGGCTAFVSSWYVM, the amyloid nucleation score result is “inactive”. IETPSGLRKIELFMTCYYTS registered an amyloid nucleation score of 0.431 ± 0.41. Under IEWLI stands “inactive”; under IFACLHGAREVFLFQWLGFE, “inactive”. Under IFACVLHVVTW stands “inactive”; under IFCAKSIIGIPGTDPRCRPD, 1.5 ± 0.13. Turning to IFCYPQAQS, the amyloid nucleation score result is “inactive”.

For IFEVFSVNKV, the amyloid nucleation score result was “inactive”.

IFHFAATHEWYIMYYIDGSP: the amyloid nucleation score entry was “inactive”. Under IFHMVVLVLAGKFILVISCS stands “inactive”; under IFIAKLENTVSRLFTFCFIM, “inactive”. Under IFILTMSDWVFL stands 1.91 ± 0.062; under IFIQLLPYVFSTVEVSDFVG, 0.625 ± 0.38; under IFNMSEYNKLECTLTLY, “inactive”. In the case of IFNNLTGFNNKGS, the amyloid nucleation score entry was “inactive”. Under IFSYLEEECDPRWRGPLKPL stands “inactive”.

On to IFTHVVEEFS, for which the amyloid nucleation score entry was “inactive”. In the case of IFVQAYLRGSEICALGDWRL, the amyloid nucleation score entry was “inactive”.

IFVRSLAQLGLIFDFHIFWE: the amyloid nucleation score entry was “inactive”.

IFVWGNNLTMSLSVFNNA: the amyloid nucleation score was 2.58 ± 0.072. As for IFWSFTGT, the amyloid nucleation score result was “inactive”.

In the case of IFWYEDKIYKMGWQFGGIAY, the amyloid nucleation score was found to be 1.1 ± 0.11. In the case of IFYFHQFNCMPGLAFTSVIG it was “inactive”. Turning to IGDMSLLLTCGGWSLIQLQA, the amyloid nucleation score entry is “inactive”. Consider IGFAGSVM, for which the amyloid nucleation score result was “inactive”.

Take IGHSTTYHKRQECSLVQWSS: the amyloid nucleation score result is “inactive”. Regarding IGLRLVATLIDLRNADIGYG, the amyloid nucleation score entry was “inactive”. As for IGMMYVIGIYLIGGNYSIR, the amyloid nucleation score result is “inactive”. As for IGNFRGL, the amyloid nucleation score entry was “inactive”.

IGPIWVPYHMSIIRSLLFGI: the amyloid nucleation score entry was “inactive”. Under IGRVTSMGRMLHGNW stands “inactive”; under IGTDWRARAMAALYI, “inactive”.

With IGTSAWLEKRASLLVCMKKA, the amyloid nucleation score result is “inactive”. As to IGVIWRFVLWSGPRTDSQVS, the amyloid nucleation score entry was “inactive”. Take IGVQATVICYWRIMNRGHKR: the amyloid nucleation score result was “inactive”. In the case of IGYVMFGTSSSAFRITYISK it was “inactive”. The substance IHCSDVGALRMYVPSTGPFS gave an amyloid nucleation score of -0.213 ± 0.64. In the case of IHDMVQYERCDNRNSNRVHE it was “inactive”. In the case of IHILTKVWFSCVRRSLS it was “inactive”; in that of IHNGKDTLAVVWYGFLIMFW, “inactive”.

IHPPSGYPGSGLSLCCSKNS: the amyloid nucleation score result is “inactive”. Turning to IHRNNNFFRRGYVWSYEEHH, the amyloid nucleation score result was “inactive”.

In the case of IHSDLTVSCNIYWKSY, the amyloid nucleation score was 0.922 ± 0.14. Under IHTQAFMGMFSLHWNHVFDL stands “inactive”; under IHYRANRCRRYCAFIYKAN, “inactive”.

As to IIDYRDQRVLESLRFYVLCS, the amyloid nucleation score entry was “inactive”.

IIFLQIPNLFMGNKTRQKGA: the amyloid nucleation score result is “inactive”. Under IIFNFFSRVLELLMLGYPYT stands “inactive”; under IIHEFFSTQLILYDCIDRWF, “inactive”. For IIHLNLSNVWYTPSGWYRVC, the amyloid nucleation score was found to be 2.3 ± 0.063.

As for IILQNFPNRKYMCLGAKMAS, the amyloid nucleation score entry was “inactive”.

For IILRFDGFTMSSPRNLVIDG, the amyloid nucleation score entry was “inactive”.

Turning to IILRTWVSTLQSNSAIEVTL, the amyloid nucleation score entry is “inactive”.

Source of the values: the supplement of paper PMC12042874.
